# Experimental data: patent US10398755B2, “Clusterin pharmaceuticals and treatment methods using the same” (UNIVERSITY OF SOUTHERN CALIFORNIA, priority 2009, dated 2019)
# B1: CLU: secreted disulfide-linked heterodimeric glycoprotein (70-80 KD); assays used recombinant mouse CLU with C-terminal (His)6 (protein, UniProt Q06890 22-448, looked up)
# Clusterin: EQEVSDNELQELSTQGSRYINKEIQNAVQGVKHIKTLIEKTNAERKSLLNSLEEAKKKKEDALEDTRDSEMKLKAFPEVCNETMMALWEECKPCLKHTCMKFYARVCRSGSGLVGQQLEEFLNQSSPFYFWMNGDRIDSLLESDRQQSQVLDAMQDSFARASGIIDTLFQDRFFARELHDPHYFSPIGFPHKRPHFLYPKSRLVRSLMSPSHYGPPSFHNMFQPFFEMIHQAQQAMDVQLHSPAFQFPDVDFLREGEDDRTVCKEIRRNSTGCLKMKGQCEKCQEILSVDCSTNNPAQANLRQELNDSLQVAERLTEQYKELLQSFQSKMLNTSSLLEQLNDQFNWVSQLANLTQGEDKYYLRVSTVTTHSSDSEVPSRVTEVVVKLFDSDPITVVLPEEVSKDNPKFMDTVAEKALQEYRRKSRAE
# modifications: C-terminal His6 tag
# Key:
# MMP-2 = molecular target: T1, MMP-2 (Mus musculus, UniProt P33434); test: MMP inhibition assay (FRET peptide substrate), APMA-activated pro-MMP-2; assay type: biochemical
# T1 construct: purchased R&D Systems
# Experimental: RFU, relative fluorescence unit, was obtained by considering the read out in PBS as 100%. Each reaction was performed in triplicate. Standard errors were depicted as a bar in each graph. Differences between values of PBS and CLU or SB-3CT reactions were statistically significant by Student t-test: *P=0.0004, **P=0.0001, +P=0.0003, and ++P=0.01. Gelatin zymography was performed with the samples pooled from each reaction set. Pro-MMPs, processed MMPs (MMP-9 or MMP-2), and C-terminal truncated, processed MMP-9 (MMP-9-ΔC) were indicated by arrows. (B) Dose-dependent inhibition of MMP-9 by CLU or SB-3CT was performed in the same condition. MMPs were mixed with CLD in TSCB buffer, 50 mM Tris-HCI, pH, 7.5, 150 mM NaCl, 5 mM CaCl2, 0.002% Brij35 (or otherwise indicated concentration) 30 min prior to substrate addition, and incubated for 3 h at RT in the presence or absence of 0.02 mM p-aminophenylmercuric acetate (APMA). MMP activity was measured using a 5-FAM/QXL520 fluorescence resonance energy transfer (FRET) peptide as a substrate (EXlEm=490 nm/520 nm) (AnaSpec, Fremont, Calif.), according to the manufacturer's protocol. Relative fluorescence unit (RFU) was obtained by subtracting the values of APMA- or enzyme-omitted reactions from those of test samples, and then considering the fluorescence unit of a PBS (vehicle) sample as 100%. Enzyme reactions were performed in black 96-well plate, containing combinations of 10 ng, 5 ng, 5 ng, 10 ng, 2.5 μg, 2.5 μg of MMP-2, MMP-7, catalytic domain of MMP-9, MMP-9, CCLU, and/or BSA, respectively, in 50 μl reaction volume. As MMP substrates (0.4 μM), 520 MMP FRET substrate […] (SEQ ID NO: 9), was used for MMP-2 and MMP-9, and 520 MMP FRET substrate XIV, […] […] Fluorescence was monitored using a Victor^3TM V multilabel counter (PerkinElmer). […] To determine whether MMP-9/CLU interaction affects the cleavage process of the propeptide of MMP-9 and/or interferes with enzymatic activity of the processed active enzyme, we performed an in vitro MMP-9 inhibition assay, by adopting FRET assay using a fluorescence-quenched peptide substrate (FIG. 3A). […] We incubated pro-MMP-9 with PBS, CLU, SB-3CT, or BSA, and a fluorescence peptide substrate in the presence or absence of APMA. […] We monitored the change in fluorescence value during the incubation of the reactions up to 3 h, which reflects the enzymatic activity of APMA-activated MMPs. […] At 3 h post incubation, the activity difference was read and reaction products were resolved by gelatin zymography. […] When the processed enzyme products were resolved on the gel, three bands were detected in the APMA-treated samples, pro-MMP-9, propeptide-cleaved MMP-9 (MMP-9), and MMP-9 with both propeptide and C-terminal region cleaved (MMP-9-ΔC), whereas only pro-MMP-9 was detected in APMA-omitted samples. […]
# [1] = test system: MMP-9 secreted from HCLE cells; test: TNF-alpha induction of MMP-9 secretion from stratified HCLE cells (gelatin zymography); assay type: cell-based, human; details: clusterin 50 ug/ml with TNF-alpha 10 ng/ml, 24 hours
# Experimental: (§1) HCLE cells were grown to be confluent in KSFM media and then replenished with DMAM/F12 media to stratify cells for 7 days. To these cells in serum-free DMEM/F12 media, clusterin (50 ug/ml), bovine serum albumin (BSA, 50 ug/ml), and TNF-alpha (10 ng/ml), individually or in combination, were treated for 24 hours. The same volume of supernatants of the cell cultures treated were collected to resolve on SDS/PAGE gel containing gelatin in order to perform gelatin zymography to visualize the presence of MMP-9 secreted from the cells.
# as §1, with “cells. […] Therefore, Clusterin inhibits the induction of MMP-9 from human corneal limbal epithelial (HCLE) cells. (See FIG. 10)” for “cells.”
# T1 sequence (P33434 110-662): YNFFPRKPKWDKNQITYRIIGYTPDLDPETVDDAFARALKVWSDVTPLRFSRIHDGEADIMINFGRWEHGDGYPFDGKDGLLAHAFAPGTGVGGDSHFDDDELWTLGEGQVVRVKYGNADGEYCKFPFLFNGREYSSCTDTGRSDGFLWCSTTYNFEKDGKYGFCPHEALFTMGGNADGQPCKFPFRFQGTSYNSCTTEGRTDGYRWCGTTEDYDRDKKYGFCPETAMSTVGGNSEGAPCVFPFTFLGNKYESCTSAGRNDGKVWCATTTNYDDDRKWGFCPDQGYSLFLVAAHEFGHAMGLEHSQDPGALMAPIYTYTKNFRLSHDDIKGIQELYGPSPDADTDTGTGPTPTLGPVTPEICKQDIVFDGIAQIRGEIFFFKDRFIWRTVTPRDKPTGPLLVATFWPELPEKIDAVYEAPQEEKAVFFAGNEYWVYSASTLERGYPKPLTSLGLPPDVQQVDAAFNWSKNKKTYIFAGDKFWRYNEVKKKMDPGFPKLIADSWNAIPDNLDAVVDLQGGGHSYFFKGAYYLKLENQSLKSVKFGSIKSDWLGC
molecule,measurement,setting,value
B1,effect on APMA-induced processing of MMP-2 (gel analysis),MMP-2; APMA-treated reactions,processing of MMP-2 was not altered
same,inhibition of MMP-2 activity,"MMP-2; CLU 50 μg/ml (0.63 μM), APMA, RT 3 h",72%
same,potency on MMP-2 compared with SB-3CT,MMP-2; CLU 50 μg/ml or 0.63 μM versus SB-3CT 1 μM,more potent inhibitor of both MMP-9 and MMP-2 than SB-3CT
same,MMP-2 inhibition at high detergent concentration,MMP-2; buffer with 0.04% Brij 35 or NP-40,inhibited by CLU in both buffers to the extent similar to that in the lower detergent concentration
same,TNF-induced MMP-9 secretion,[1],inhibited TNF-induced MMP-9 secretion
